This assay has as its target Reelin from frontal cortex of non-demented (ND) subjects (human (endogenous in frontal cortex)) (UniProt P78509). Put plainly: native gel or EMSA; blue native-PAGE of human frontal cortex extracts in 25 mM Bis-Tris pH 7.0, 0.5% DDM, 20% glycerol; samples not boiled; anti-Reelin immunoblot.

Here are results for one substance from article PMC3741172.

By stoichiometry N is commonly meant the number of molecules, sites or subunits per partner or assembly. In turn, “Reelin from frontal cortex of non-demented (ND) subjects (from UniProt P78509 26-3460) (natural protein)” returned a stoichiometry N of 2.
